One test concerns the target T1, DAP12 (UniProt O43914 22-113).
T1 construct: Endogenous protein in NK cell lysates
The experiment in a line: co-immunoprecipitation (data not shown).

Another test concerns the target T2, FcεRIγ (UniProt P30273 19-86).
T2 construct: Endogenous protein in NK cell lysates; also called FcεFRIγ (as misprinted)
T2 sequence (looked up): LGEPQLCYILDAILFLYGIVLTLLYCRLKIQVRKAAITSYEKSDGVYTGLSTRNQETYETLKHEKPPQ
As to the kind of experiment: co-immunoprecipitation (data not shown).

T1 sequence (O43914 22-113 limits assumed): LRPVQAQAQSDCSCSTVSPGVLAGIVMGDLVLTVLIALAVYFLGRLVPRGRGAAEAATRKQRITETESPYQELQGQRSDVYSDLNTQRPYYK

B1: NKp80 (receptor)
chain: MQDEERYMTLNVQSKKRSSAQTSCLTFKDYSVTLHWYKILLGISGTVNGILTLTLISLILLVSCGVLLKCQKGSCSNATQYEDTGDLKVNNGTRRNISNKDLCASRSADQTVLCQSEWLKYQGKCYWFSNEMKSWSDSYVYCLERKSHLLIIHDQLEMAFIQKNLRQLNYVWIGLNFTSLKMTWTWVDGSPIDSKIFFIKGPAKENSCAAIKESKIFSETCSSVFKWICQY
notes: 231 aa type II transmembrane protein; On the NK cell surface it is a dimer (80 kD non-reduced, about 40 kD reduced); Tested on human NK cells, in lysates of 125I-labeled NK cells, and on 293T cells transfected with VR1012-ML; also called MA152-reactive molecule; MA152 mAb-reactive molecule
With B1, the binding result with DAP12 and in the test with FcεRIγ was “no binding” each time.

These data come from patent publication US20040115738A1 (INNATE PHARMA, published 2004).
